{
  "source": "patent US5723299",
  "about": "“Somatostatin receptors” (Arch Development Corporation, dated 1998)",
  "binders": {"B1": {"name": "somatostatin-28 (peptide)", "peptide": "SANSNPAMAPRERKAGCKNFFWKTFTSC"}, "B2": {"name": "somatostatin-14 (peptide)", "peptide": "AGCKNFFWKTFTSC", "modifications": "not fully specified (bridges); cysteine pairing not given here"}},
  "key": {"[1]": {"biological_target": "human somatostatin receptor SSTR1 (human)", "sequence (chain, as listed by the source)": "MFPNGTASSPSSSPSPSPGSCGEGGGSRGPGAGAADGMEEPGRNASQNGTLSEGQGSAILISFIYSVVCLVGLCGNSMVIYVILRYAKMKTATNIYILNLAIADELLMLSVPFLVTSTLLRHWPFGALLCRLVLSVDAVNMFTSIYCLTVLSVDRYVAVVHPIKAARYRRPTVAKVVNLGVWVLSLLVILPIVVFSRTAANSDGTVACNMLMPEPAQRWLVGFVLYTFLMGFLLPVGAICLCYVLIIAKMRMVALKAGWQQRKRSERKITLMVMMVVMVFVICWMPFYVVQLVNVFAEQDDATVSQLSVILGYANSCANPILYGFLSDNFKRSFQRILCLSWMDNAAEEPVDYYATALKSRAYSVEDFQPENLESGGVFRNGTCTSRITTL", "experiment": "competition of [125I]iodo-Tyr11-somatostatin-14 binding to CHO cells stably expressing human SSTR1", "experimental": "The resulting constructs were co-transfected with pSV2neo into the dihydrofolate reductase-deficient Chinese hamster ovary (CHO) cell line, DG44, using Lipofectin Reagent (GIBCO BRL, Gaithersburg, Md.). Stable transfectants were selected and maintained in α-MEM (GIBCO BRL) containing 400 vg/ml G418. Each cell line was grown to confluency in 6-well, 35-mm diameter plates at 37° C. The cells were washed with buffer containing 10 mM HEPES, 5 mM KH_2PO_4, 5 mM MgCl_2, 150 mM NaCl, and 1% (wt./vol.) bovine serum albumin (all at pH 7.4), and were stabilized in the same buffer for 30 min at 22° C. […] Incubated cells were washed twice with 2-ml portions of ice-cold buffer and were dissolved in 1 ml of 8M urea in 3M acetic acid. The suspended cells were transferred to a tube, the well was washed with 1 ml of the same solution, and the combined extracts were measured for radioactivity by use of a gamma-counter.\nThe pharmacological characteristics of SSTR1 were examined in CHO cells that were stably expressing this receptor."}, "[2]": {"biological_target": "T1, mouse somatostatin receptor SSTR2 (mouse)", "T1 chain": "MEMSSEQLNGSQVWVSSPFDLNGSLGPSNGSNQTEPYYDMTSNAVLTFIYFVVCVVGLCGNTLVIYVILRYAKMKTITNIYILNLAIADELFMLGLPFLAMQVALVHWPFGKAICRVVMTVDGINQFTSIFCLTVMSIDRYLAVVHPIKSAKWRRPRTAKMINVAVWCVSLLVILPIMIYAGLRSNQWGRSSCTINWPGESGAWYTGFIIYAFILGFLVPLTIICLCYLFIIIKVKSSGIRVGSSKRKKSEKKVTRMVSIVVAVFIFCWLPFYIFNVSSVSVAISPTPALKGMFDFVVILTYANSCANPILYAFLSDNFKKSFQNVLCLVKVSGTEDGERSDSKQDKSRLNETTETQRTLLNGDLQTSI", "experiment": "competition of [125I]iodo-Tyr11-somatostatin-14 binding to CHO cells transfected with mouse SSTR2", "text": "At 1.5 PstI/XmnI fragment of the human SSTR1 gene and a 1.2 kb XbaI fragment of the mouse SSTR2 gene were inserted into the mammalian expression vectors pCMV6b and 6c, respectively (a gift of Dr. B. Chapman, Chiron Corp., Emeryville, Calif.). The resulting constructs were co-transfected with pSV2neo into the dihydrofolate reductase-deficient Chinese hamster ovary (CHO) cell line, DG44, using Lipofectin Reagent (GIBCO BRL, Gaithersburg, Md.). Stable transfectants were selected and maintained in α-MEM (GIBCO BRL) containing 400 vg/ml G418. Each cell line was grown to confluency in 6-well, 35-mm diameter plates at 37° C. The cells were washed with buffer containing 10 mM HEPES, 5 mM KH_2PO_4, 5 mM MgCl_2, 150 mM NaCl, and 1% (wt./vol.) bovine serum albumin (all at pH 7.4), and were stabilized in the same buffer for 30 min at 22° C. […] Incubated cells were washed twice with 2-ml portions of ice-cold buffer and were dissolved in 1 ml of 8M urea in 3M acetic acid. The suspended cells were transferred to a tube, the well was washed with 1 ml of the same solution, and the combined extracts were measured for radioactivity by use of a gamma-counter."}},
  "note": "No end group written: not given here.",
  "data": [
    {"binder": "B1", "values": [
      {"measurement": "IC50", "setting": "[1]", "value": 4.7, "unit": "nM"}
    ]},
    {"binder": "B2", "values": [
      {"measurement": "IC50", "setting": "[2]", "value": 1.6, "unit": "nM"}
    ]}
  ]
}
